From patent US11571480B2, “Multi-ligand drug conjugates and uses thereof” (priority 2015, dated 2023)
Numbered stars: 1 amine (or outer) side, 2 acyl side, 3 side chain; on linkers, the order of the positions; unused ones are H or OH. Bridge positions count the residues as written; N and C are the ends. Square brackets hold non-standard residues; d marks the D form. Peptide text beside a SMILES is read from it. I, II: the chains in the order shown. * marks the point of attachment. Hexanoyl(6-succinimido-3yl) = O=C1CC([*:1])C(=O)N1CCCCCC(=O)[*:2]; Pteroyl = Nc1nc2ncc(CNc3ccc(C(=O)*)cc3)nc2c(=O)[nH]1; Dolaproine = CO[C@@H]([C@@H]1CCCN1)[C@@H](C)C(=O)O; Dil = CC[C@H](C)[C@H](NC)[C@@H](CC(=O)O)OC; γGlu = O=C(O)[C@H](CCC(=O)[*:2])N[*:1]; PABC = O=C(OCc1ccc(N[*:1])cc1)[*:2]; X1 = C[C@@H](N*)[C@@H](O)c1ccccc1; Cit = NC(=O)NCCC[C@H](N)C(=O)O; NMeV = CN[C@H](C(=O)O)C(C)C

Legend:
[1] = test system: chronic myeloid leukemia cell line K562; experiment: Cytotoxicity test of conjugate LDC10B; assay type: cell-based; conditions: K562, Incubation Time 30 min
Procedure: (§1) Culture medium: RPMI 1640 Medium, no folic acid
(§2) 1) human nasopharyngeal cancer cell line KB, melanoma cell line A375, human lung cancer cell H1299, chronic myeloid leukemia cell line K562, human lung cancer cell H460, ovarian cancer cell SKOV3, breast cancer cell line HCC1954, human gastric cancer cell N87, and human breast cancer cell SK-BR-3 were incubated at 37° C., 5% CO2 in RPMI 1640 medium containing 10% fetal bovine serum, the cells were passaged every 2-3 days.
(§3) 2) human nasopharyngeal cancer cell line KB, melanoma cell line A375, human lung cancer cell H1299, chronic myeloid leukemia cell line K562, human lung cancer cell H460, ovarian cancer cell SKOV3, breast cancer cell line HCC1954, human gastric cancer cell N87, and human breast cancer cell SK-BR-3 were plated at 1×10^3 cells per well (96-well plate) and incubated for 8-12 h at 37° C., 5% CO2.
(§4) 3) Stock solutions of LDC conjugates or controls were prepared in PBS solution. 100 μL/well of serially diluted LDC conjugates or controls was added to the test cells in the plates and incubated for 15-30 min at 37° C., 5% CO2. The culture medium in the wells was then removed by aspiration and the test cells were incubated in fresh culture medium without conjugates (150 μL/well) for 2-3 days at 37° C., 5% CO2.
(§5) 4) CellTiter 96® Aqueous One Solution Cell Proliferation Assay (Promega) was added to each well to measure the amount of […] cells, and each plate was incubated in an incubator for 1 h at 37° C., 5% CO2.
(§6) 5) Each plate was read at 490 nm on a microplate reader, and the cell survivals were compared for test cells with or without the treatment of LDC conjugates. The LDC drug concentrations that are required for 50% cell death (IC50 values) were determined.

[2] = test system: human breast cancer cell SK-BR-3; experiment: Cytotoxicity test of conjugate LDC10B; assay type: cell-based; conditions: SK-BR-3, Incubation Time 30 min
Procedure: as §1, §2, §3, §4, §5, §6

[3] = test system: human gastric cancer cell N87; experiment: Cytotoxicity test of conjugate LDC10B; assay type: cell-based; conditions: N87, Incubation Time 30 min
Procedure: as §1, §2, §3, §4, §5, §6

[4] = test system: human lung cancer cell H1299; experiment: Cytotoxicity test of conjugate LDC10B; assay type: cell-based; conditions: H1299, Incubation Time 30 min
Procedure: as §1, §2, §3, §4, §5, §6

[5] = test system: human lung cancer cell H460; experiment: Cytotoxicity test of conjugate LDC10B; assay type: cell-based; conditions: H460, Incubation Time 30 min
Procedure: as §1, §2, §3, §4, §5, §6

[6] = test system: human nasopharyngeal cancer cell line KB; experiment: Cytotoxicity test of conjugate LDC10B; assay type: cell-based; conditions: Incubation Time 15 min
Procedure: as §1, §2, §3, §4, §5, §6

[7] = test system: melanoma cell line A375; experiment: Cytotoxicity test of conjugate LDC10B; assay type: cell-based; conditions: A375, Incubation Time 15 min
Procedure: as §1, §2, §3, §4, §5, §6

[8] = test system: breast cancer cell line HCC1954; experiment: Cytotoxicity test of conjugate LDC10B; assay type: cell-based, human; conditions: HCC1954, Incubation Time 30 min
Procedure: as §1, §2, §3, §4, §5, §6

[9] = test system: ovarian cancer cell SKOV3; experiment: Cytotoxicity test of conjugate LDC10B; assay type: cell-based, human; conditions: SKOV3, Incubation Time 30 min
Procedure: as §1, §2, §3, §4, §5, §6

[10] = test system: human lung cancer cell H460; experiment: Cytotoxicity test of conjugate LDC10BR; assay type: cell-based; conditions: H460, incubated 15-30 min, then 2-3 days
Procedure: as §1
(§7) 1) human nasopharyngeal cancer cell line KB, melanoma cell line A375, and human lung cancer cell H460 were incubated at 37° C., 5% CO2 in RPMI 1640 medium containing 10% fetal bovine serum, the cells were passaged every 2-3 days.
(§8) 2) human nasopharyngeal cancer cell line KB, melanoma cell line A375, and human lung cancer cell H460 were plated at 1×10^3 cells per well (96-well plate) and incubated for 8-12 h at 37° C., 5% CO2.
as §4, with “control” for “controls”, “the” for “the test”, “plate” for “plates”
(§9) 4) CellTiter 96® Aqueous One Solution Cell Proliferation Assay (Promega) was added to each well to measure the amount of […] cells, and the plate was incubated in an incubator for 1 h at 37° C., 5% CO2.
(§10) 5) the plate was read at 490 nm on a microplate reader, and the cell survivals were compared for cells with or without the treatment of LDC conjugates. The LDC drug concentrations that are required for 50% cell death (IC50 values) were determined.

[11] = test system: human nasopharyngeal cancer cell line KB; experiment: Cytotoxicity test of conjugate LDC10BR; assay type: cell-based; conditions: incubated 15-30 min, then 2-3 days
Procedure: as §1, §7, §8
as §4, with “control” for “controls”, “the” for “the test”, “plate” for “plates”
as §9, §10

[12] = test system: melanoma cell line A375; experiment: Cytotoxicity test of conjugate LDC10BR; assay type: cell-based; conditions: A375, incubated 15-30 min, then 2-3 days
Procedure: as §1, §7, §8
as §4, with “control” for “controls”, “the” for “the test”, “plate” for “plates”
as §9, §10

[13] = test system: Transplanted H460 tumor; experiment: Inhibitory assay of conjugates LDC10B and LDC10H against xenograf tumors; assay type: in vivo, nude mice
Procedure: (§11) Animal: nude mice, aged 6-8 weeks, female
(§12) 1) human large cell lung cancer cell H460, human lung cancer cell A549, ovarian cancer cell SKOV3, and breast cancer cell line HCC1954 were incubated at 37° C., 5% CO2 in IMDM medium containing 10% fetal bovine serum, the cells were passaged every 2-3 days.
(§13) 2) generation of tumors: 7×10^6 tumor cells were injected subcutaneously into the back of nude mice, and the mice were grouped for treatment after the tumor sizes were as large as about 100-200 mm^3.
(§14) 3) treatment: 3 mice/group, treated with LDC10B, LDC10H, as well as controls MMAE and PBS with doses of 5 and 10 mg/kg every 5 days, three injections.
(§15) 4) the physical performance, body weights and tumor sizes of the animals were monitored. The number of animal death was recorded during the experiment.

[14] = test system: Transplanted HCC1954 tumor; experiment: as above; assay type: in vivo, nude mice; conditions: 10 mg/kg
Procedure: as §11, §12, §13, §14, §15

[15] = test system: Transplanted SKOV3 tumor; experiment: as above; assay type: in vivo, nude mice; conditions: 10 mg/kg
Procedure: as §11, §12, §13, §14, §15

[16] = Detection of conjugate concentrations in xenograf tumor models (serum, anti-MMAE ELISA); assay type: in vivo, nude mice; conditions: 10 mg/kg, peritoneal injection
Procedure: as §11
1) Human ovarian cancer cell SKOV3 and breast cancer cell line HCC1954 were incubated at 37° C., 5% CO2 in IMDM medium containing 10% fetal bovine serum, the cells were passaged every 2-3 days.
2) generation of tumors: 7×10^6 tumor cells were injected subcutaneously into the back of nude mice, and the mice were grouped for treatment after the tumor sizes were as large as about 100˜200 mm^3.
3) treatment: 3 mice/group, 10 mg/kg, peritoneal injection.
4) blood collection: the time for blood collection before treatment was set as 0, blood was collected at 20 min, 2 h, 4 h, and 24 h after treatment. The blood was centrifuged to collect serum, which was frozen and preserved.
5) Detection: the total amount of MMAE, LDC10B, LDC10H, as well as the MMAE metabolites of LDC10B and LDC10H in serum were detected by mice anti-MMAE ELISA kit.

## CC[C@H](C)[C@@H]([C@@H](CC(=O)N1CCC[C@H]1[C@H](OC)[C@@H](C)C(=O)N[C@H](C)[C@@H](O)c1ccccc1)OC)N(C)C(=O)[C@@H](NC(=O)[C@H](C(C)C)N(C)C(=O)OCc1ccc(NC(=O)[C@H](CCCNC(N)=O)NC(=O)[C@@H](NC(=O)CCCCCN2C(=O)CC(SC[C@H](NC(=O)CC[C@H](NC(=O)c3ccc(NCc4cnc5[nH]c(N)nc(=O)c5n4)cc3)C(=O)O)C(=O)N[C@@H](CCCCN)C(=O)N[C@@H](CCC(=O)O)C(=O)N[C@@H](Cc3ccccc3)C(=O)N[C@@H](CC(C)C)C(=O)N[C@@H](Cc3c[nH]cn3)C(=O)N3CCC[C@H]3C(=O)N[C@@H](CO)C(=O)N[C@@H](CCCCN)C(=O)N[C@H](C(=O)N[C@@H](CC(=O)O)C(=O)N[C@@H](CC(C)C)C(=O)N3CCC[C@H]3C(=O)N[C@@H](CCCNC(=N)N)C(=O)O)C(C)C)C2=O)C(C)C)cc1)C(C)C (stereo partly shown) [LDC10B] (I: {Pteroyl-γGlu}-CKEFLHPSKVDLPR-OH / II: V[Cit][PABC][NMeV]V[Dil][Dolaproine]-X1; linker I:1-II:N via Hexanoyl(6-succinimido-3yl))
[1]
  IC50: 14.8 nM
[2]
  IC50: 15.9 nM
[3]
  IC50: 75.1 nM
[4]
  IC50: 58.8 nM
[5]
  IC50: 50.4 nM
[6]
  IC50: 760 nM
[7]
  IC50: 10000 nM
[8]
  IC50: 14.1 nM
[9]
  IC50: 15.7 nM
[10]
  IC50: 6800 nM
[11]
  IC50: 2200 nM
[12]
  IC50: 51300 nM
[13]; 5 mg/kg, Before Injection
  Body weight of mice: 23.13 g
[13]; 5 mg/kg, Five days after Injection 1
  Body weight of mice: 22.53 g
[13]; 5 mg/kg, Five days after Injection 2
  Body weight of mice: 22.26 g
[13]; 5 mg/kg, Five days after Injection 3
  Body weight of mice: 21.65 g
[13]; 10 mg/kg, Before Injection
  Body weight of mice: 22.51 g
[13]; 10 mg/kg, Five days after Injection 1
  Body weight of mice: 22.53 g
[13]; 10 mg/kg, Five days after Injection 2
  Body weight of mice: 23.37 g
[13]; 10 mg/kg, Five days after Injection 3
  Body weight of mice: 23 g
[14]; Before Injection
  Body weight of mice: 21.85 g
[14]; Five days after Injection 1
  Body weight of mice: 22.2 g
[14]; Five days after Injection 2
  Body weight of mice: 22.55 g
[14]; Five days after Injection 3
  Body weight of mice: 22.38 g
[15]; Before Injection
  Body weight of mice: 22.96 g
[15]; Five days after Injection 1
  Body weight of mice: 22.44 g
[15]; Five days after Injection 2
  Body weight of mice: 23.23 g
[15]; Five days after Injection 3
  Body weight of mice: 23.53 g
[16]; 20 min
  Concentration in serum: 10800 ng/mL
[16]; 2 h
  Concentration in serum: 5035 ng/mL
[16]; 4 h
  Concentration in serum: 530 ng/mL
[16]; 24 h
  Concentration in serum: 117.9 ng/mL
  detected in serum at 24 h after treatment (in words): Trace amount
[16]; Before Treatment
  Concentration in serum: 0 ng/mL
